# Patent US20240261333A1, “NOVEL TARGETS FOR ENHANCING ANTI-TUMOR IMMUNITY” (THE BROAD INSTITUTE, INC., priority 2021, published 2024)
# Experiments:
# Test in all cases: co-IP with anti-FLAG, C-FLAG B3GNT2, mass spectrometry
# EMILIN1 (human) = EMILIN1 (human) (UniProt Q9Y6C2)
# COPA (human) = COPA (human) (UniProt P53621)
# P4HA2 (human) = P4HA2 (human) (UniProt O15460)
# SERPINB3 (human) = SERPINB3 (human) (UniProt P29508)
# SYNPO (human) = SYNPO (human) (UniProt Q8N3V7)
# TELO2 (human) = TELO2 (human) (UniProt Q9Y4R8)
# RPS24 (human) = RPS24 (human) (UniProt P62847)
# TPM2 (human) = TPM2 (human) (UniProt P07951)
# MAP4 (human) = MAP4 (human) (UniProt P27816)
# CALML5 (human) = CALML5 (human) (UniProt Q9NZT1)
# ARPC1B (human) = ARPC1B (human) (UniProt O15143)
# DHX9 (human) = DHX9 (human) (UniProt Q08211)
# RPL7 (human) = RPL7 (human) (UniProt P18124)
# YTHDF2 (human) = biological target: T1, YTHDF2 (human) (UniProt Q9Y5A9)
# T1 sequence (looked up): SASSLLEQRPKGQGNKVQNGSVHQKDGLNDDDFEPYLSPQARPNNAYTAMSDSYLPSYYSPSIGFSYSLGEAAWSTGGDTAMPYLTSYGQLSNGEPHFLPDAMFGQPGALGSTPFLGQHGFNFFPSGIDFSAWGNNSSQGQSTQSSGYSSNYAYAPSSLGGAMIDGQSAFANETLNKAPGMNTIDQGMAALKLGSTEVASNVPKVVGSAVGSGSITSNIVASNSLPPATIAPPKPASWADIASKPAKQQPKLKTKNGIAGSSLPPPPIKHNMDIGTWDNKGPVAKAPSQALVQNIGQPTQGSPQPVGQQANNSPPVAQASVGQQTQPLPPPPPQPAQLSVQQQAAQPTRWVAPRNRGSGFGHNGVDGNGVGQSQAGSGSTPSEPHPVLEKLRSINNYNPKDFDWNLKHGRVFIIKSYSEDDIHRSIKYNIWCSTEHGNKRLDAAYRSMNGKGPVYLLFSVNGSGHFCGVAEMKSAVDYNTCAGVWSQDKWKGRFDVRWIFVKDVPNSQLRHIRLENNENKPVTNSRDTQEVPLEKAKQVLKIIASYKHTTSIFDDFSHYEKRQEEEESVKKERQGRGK
# RPL6 (human) = RPL6 (human) (UniProt Q02878)
# XPOT (human) = XPOT (human) (UniProt O43592)
# RPS26 (human) = RPS26 (human) (UniProt P62854)
# HNRNPH1 (human) = HNRNPH1 (human) (UniProt P31943)
# IL13RA2 (human) = IL13RA2 (human) (UniProt Q14627)
# GEMIN4 (human) = GEMIN4 (human) (UniProt P57678)
# MMP14 (human) = MMP14 (human) (UniProt P50281)
# TTC13 (human) = TTC13 (human) (UniProt Q8NBP0)
# SPARC (human) = SPARC (human) (UniProt P09486)
# RPL7A (human) = RPL7A (human) (UniProt P62424)
# RACK1 (human) = RACK1 (human) (UniProt P63244)
# SYNCRIP (human) = SYNCRIP (human) (UniProt O60506)
# RHOT2 (human) = RHOT2 (human) (UniProt Q8IXI1)
# CPT1A (human) = CPT1A (human) (UniProt P50416)
# NAP1L1 (human) = NAP1L1 (human) (UniProt P55209)
# CCT3 (human) = CCT3 (human) (UniProt P49368)
# LAMC1 (human) = LAMC1 (human) (UniProt P11047)
# PPFIBP1 (human) = PPFIBP1 (human) (UniProt Q86W92)
# RBM14 (human) = RBM14 (human) (UniProt Q96PK6)
substance,measurement,setting,value
C-terminal FLAG tagged B3GNT2 (from UniProt Q9NY97 1-397) (enzyme),co-IP mass spectrometry count,EMILIN1 (human),3
same,"co-IP/MS count, C-term flag",COPA (human),2
same,"co-IP/MS count, C-term flag",P4HA2 (human),4
same,co-IP mass spectrometry count,SERPINB3 (human),9
same,co-IP mass spectrometry count,SYNPO (human),7
same,co-IP mass spectrometry count,TELO2 (human),3
same,"co-IP/MS count, C-term flag",RPS24 (human),8
same,"co-IP/MS count, C-term flag",TPM2 (human),4
same,co-IP mass spectrometry count,MAP4 (human),5
same,co-IP mass spectrometry count,CALML5 (human),4
same,"co-IP/MS count, C-term flag",ARPC1B (human),5
same,co-IP mass spectrometry count,DHX9 (human),5
same,co-IP mass spectrometry count,RPL7 (human),21
same,co-IP mass spectrometry count,YTHDF2 (human),4
same,"co-IP/MS count, C-term flag",RPL6 (human),20
same,"co-IP/MS count, C-term flag",XPOT (human),2
same,co-IP mass spectrometry count,RPS26 (human),11
same,"co-IP/MS count, C-term flag",HNRNPH1 (human),15
same,co-IP mass spectrometry count,IL13RA2 (human),2
same,co-IP mass spectrometry count,GEMIN4 (human),5
same,"co-IP/MS count, C-term flag",MMP14 (human),2
same,"co-IP/MS count, C-term flag",TTC13 (human),4
same,"co-IP/MS count, C-term flag",SPARC (human),4
same,"co-IP/MS count, C-term flag",RPL7A (human),22
same,co-IP mass spectrometry count,RACK1 (human),3
same,co-IP mass spectrometry count,SYNCRIP (human),13
same,co-IP mass spectrometry count,RHOT2 (human),2
same,"co-IP/MS count, C-term flag",CPT1A (human),2
same,"co-IP/MS count, C-term flag",NAP1L1 (human),4
same,co-IP mass spectrometry count,CCT3 (human),5
same,"co-IP/MS count, C-term flag",LAMC1 (human),4
same,co-IP mass spectrometry count,PPFIBP1 (human),3
same,"co-IP/MS count, C-term flag",RBM14 (human),2
